In PMC10107573 (Nature Communications, 2023):

Target: recombinant biotinylated SARS-CoV-2 spike RBD, wild type (SARS-CoV-2, UniProt P0DTC2, biotinylated)
Assay: BLI
Conditions: both partners purified

B1: monoclonal antibody 10-5B (human IgG1) (antibody, V domains shown)
VH: EVQLVESGGGLIQPGGSLRLSCAVSGFTVSRMSWVRQAPGKGLECVSVIYTGGNTDYADSVKGRFTISRDNSKNTLYLQMNSLRAEDTALYYCVRGSGGIHDAFDIWGQGTMVTVSS
VL: DIQMTQSPSSVSASVGDRVTITCRASQGISTWLAWYQQKPGKAPKVLINAASGLQSGVPSRFSGSGSGTDFTLTISSLQPEDFATYYCQQAHSFPPTFGPGTKLEIK
B1: binds.

B2: monoclonal antibody 1-1D (human IgG1) (antibody, V domains shown)
VH: EVQLVESGGGLIQPGGSLRLSCAASGFTVSSNYMSWVRQAPGKGLEWVSVIYSGGSTYFADSVKGRFTISRDNSKNTLYLQMNSLRAEDTAVYYCARGELGYSYGMDVWGQGTTVTVSS
VL: QSVLTQPPSVSAAPGQKVTISCSGSSSNIGDNYVSWYQLLPGTAPKLLIYDNNQRPSGIPDRFSGSKSGTSATLGITGLQTGDEADYYCGTWDSSLSTGVFGGGTRLTVL
B2: binds.
